In patent publication US10272135B2, “Apolipoprotein O and fragments thereof for inducing apoptosis in a cancerous cell” (INSERM (INSTITUT NATIONAL DE LA SANTÉ ET DE LA RECHERCHE …, priority 2014, dated 2019):

Test system: cyclophilin-D and/or ANT
Assay: Blue Native Page and GST pull-down with heart mitochondria protein extracts
Assay type: binding, mouse
Settings: BN-PAGE and GST-ApoO pull-down (FIGS. 5A and B)
From the text: (A) One-dimensional BN-PAGE gel analysis of mitochondrial protein complexes from mouse heart. (1): Coomassie blue staining of the 4-13% polyacrylamide one-dimensional gradient blue native gel. (2): Ponceau S staining of the transferred PVDF membrane. ApoO, ANT and CypD were detected using enhanced chemiluminescence of the transferred PVDF membranes with ApoO, ANT or CypD antibodies respectively. ApoO, ANT and CypD were detected in the same complex (black rectangle).
(B) Western blot analysis of ApoO-GST pull-down. Upper panel: Ponceau S staining of the transferred membrane used to control loading and transfer. […]
After ethical committee approval, all patients in this study gave written consent for sample collection and molecular analysis prior to inclusion. […] All ApoO sequences within the expression vectors were verified by DNA double strand sequencing using ABI PRISM®BigDye™ Terminator version 3.1 Ready reaction cycle sequencing kit (Life Technologies SAS, Villebon sur Yvette) and loaded on an ABI 3130XL DNA sequencing instrument (Life Technologies SAS, Villebon sur Yvette). […]

B1: ApoO: 198-amino acid apolipoprotein, SEQ ID NO: 1; tested by overexpression from expression vectors or transgene (protein, listed as Homo sapiens)
chain: MFKVIQRSVGPASLSLLTFKVYAAPKKDSPPKNSVKVDELSLYSVPEGQSKYVEEARSQLEESISQLRHYCEPYTTWCQETYSQTKPKMQSLVQWGLDSYDYLQNAPPGFFPRLGVIGFAGLIGLLLARGSKIKKLVYPPGFMGLAASLYYPQQAIVFAQVSGERLYDWGLRGYIVIEDLWKENFQKPGNVKNSPGTK
With B1 the “interaction with cyclophilin-D and/or ANT” value was “interaction”.
